Data taken from patent publication US20220073643A1 (NANJING GENSCRIPT BIOTECH, published 2022).
Substitutions are numbered along the chain they refer to. One block for each binder: values may come before it.

Molecular target: human Claudin18.2 (human)
Assay: cell-based or functional assay

CDC % Relative activity: 3.42%
CDC EC50: 53.6 µg/mL
B1: 252C10F6 (antibody, V domains shown)
VH: QVHLKQSGRGLVQPSQSLSITCTVSGFSLPNYGVHWVRQPPGKGLEWLGVIWSGGNTDYNTVFKARLSITKDNSKSQVFFKMNSLQADDTAIYYCARNLYGNYDYAMDYWGQGTSVTVSS
VL: DIVMTQSPATLSVTPGDRVSLSCRASQSISDYLHWYQQKSHESPRLLIKYASQSISGIPSRFSGSGSGSEFTLSINSVEPEDVGVYYCQNGHSFPFTFGSGTKLEIK

CDC % Relative activity: 154%
CDC EC50: 1.19 µg/mL
B2: 252E7C9 (antibody, V domains shown)
VH: QTYLQQSGAELVRSGASVKMSCRTSGYSFTSHNMHWVKQTPGQGLEWIGYIYPGNGGSYYNQKFKGKAILTADTSSSTAYMQISSLTSEDSAVYFCTRDYYGNSFVYWGQGTLVTVSA
VL: DVVMTQSPSSLTEKTGEKVSMSCKSSQSLLNSGNQKNYLTWYQQKPGQPPKLLIYWASTRESGVPDRFTGSGSGTDFTLTISSLQTEDLAIYYCQNNFRYPFTFGAGTKLELK

CDC % Relative activity: 44%
CDC EC50: 3.59 µg/mL
B3: 181C7B2 (antibody, V domains shown)
VH: QVQLKQSGPGLVQPSQSLSITCTVSGFSLTYYGVHWVRQSPGKGLEWLGVIWRGGNTDYNAAFISRLSINKDNSKSQVFFKMNSLQPNDTAIYYCARAAYYGNCFDYWGQGTTLTVSS
VL: DIVMTQSPSSLTVTAGEKVTMSCKSSQSLLNSGNQKNYLTWYQQKPGQPPKLLIYWASTRESGVPDRFTGSGSGTDFTLTISSVQAEDLAVYYCQNNYIYPLTFGAGTKLELK

CDC % Relative activity: 526%
CDC EC50: 0.327 µg/mL
B4: 265E6G2 (antibody, V domains shown)
VH: B2 VH with T2A, R23K, T24A, S28T, H32Y, S58T, Y59N, I69T, T97A, V106A
VL: B3 VL with I2L, S83N, V84I, N97D, I99S, T103P, K113R

CDC % Relative activity: 174%
CDC EC50: 0.855 µg/mL
B5: 257F1E11 (antibody, V domains shown)
VH: B2 VH with T2A, R23K, T24A, S28T, M34I, G42R, S58T, Y59N, I69T, V106A
VL: B3 VL with V13E, T14K, K18R, T20S, L30F, V91I, N97D, I99W, L102F

CDC % Relative activity: 520%
CDC EC50: 0.331 µg/mL
B6: 262C7C10 (antibody, V domains shown)
VH: QAYLQQSGAELVRSGASVKMSCKASGYTFTNYNIHWVKQTPGQGLEWIGYIYPGNGGNYYNQKFKGKATLTADTSSITAYMQISSLTSEDSAVYFCARDYYGNSFAYWGQGTLVTVSA
VL: B3 VL with S22N, V91I, N97D, I99Y

CDC % Relative activity: 574%
CDC EC50: 0.275 µg/mL
B7: 194D3B2 (antibody, V domains shown)
VH: QAYLQQSGAELVRSGASVKMSCKASGYPFTSYNMHWVKQTPGQGLEWVGYIYPGNGGTNYNQKFRDKATLTADTSSSTAYMQISRLTSDDSAVYFCLTGRGFAYWGQGTLVTVSA
VL: B3 VL with T12I, A15P, K18R, W56R, N97D, I99S, A106I

CDC % Relative activity: 114%
CDC EC50: 1.61 µg/mL
B8: 248G8E8 (antibody, V domains shown)
VH: QVQLKESGPGLVAPSQSLSITCTVSGFSLTTYGVSWVRQPPGKGLEWLGVIWGDGSTNYHSTLISRLRISKDKSKSQVFLKLNSLQTDDTATYYCAKAGRGNALDYWGQGTSVTVSS
VL: B3 VL with M4L, N97D, I99S, Y100F

CDC % Relative activity: 125%
CDC EC50: 1.19 µg/mL
B9: 259C6F4 (antibody, V domains shown)
VH: B6 VH with T30S, N31S, Y32H, G57D, N58T, Y59N, I77S, A106V
VL: B3 VL with T5I, V13E, T14K, T20S, N97A, I99R, Y100F, L102F

CDC % Relative activity: 117%
CDC EC50: 1.27 µg/mL
B10: 259C6F7 (antibody, V domains shown)
VH: B6 VH with T30S, N31S, Y32H, G57D, N58T, Y59N, I77S, A106V
VL: B3 VL with T5I, V13E, T14K, T20S, N97A, I99R, Y100F, L102F

CDC % Relative activity: 129%
CDC EC50: 1.15 µg/mL
B11: 260F8A6 (antibody, V domains shown)
VH: B2 VH with T2A, T24A, S28T, G57N, S58T, I69T, S77N, S84N, T97V
VL: B2 VL with T69I, I91V, F98Y, R99M

CDC % Relative activity: 174%
CDC EC50: 1.06 µg/mL
B12: 253E4F7 (antibody, V domains shown)
VH: EIQLQQSGPELMKPGASVKMSCKASGYSFTSYYIHWVKQSHGKSLEWIGYIDPFNGGTRYNQKFEGKATLTVDKSSTTAYMHLSSLTSEDSTVYYCASLRFLAYWGQGTLVTVSA
VL: B3 VL with S22T, L52V, Y55S, W56R, E61Q, N97D, I99S

CDC % Relative activity: 88.2%
CDC EC50: 1.69 µg/mL
B13: 259B4D4 (antibody, V domains shown)
VH: EIQLQQSGPELMKPGASVRISCKASGYSFTSYYMHWMKQSHVKSLEWIGYIDPFNGNTRYNQKFKDKATLTVDKSSTTAYMHLSSLTSEDSAVYFCASLRFFAYWGQGTLVTVSA
VL: B3 VL with K24N, T59S, S83T, N97D, I99S, Y100F, K109R

CDC % Relative activity: 114%
CDC EC50: 1.39 µg/mL
B14: 186G12H3 (antibody, V domains shown)
VH: EVMLVESGGGLVKPGGSLKLSCAASRFTLSSYAMSWVRQTPEKRLEWVATISSGGSYTYYFDSVKGRFTISRDTAKNTLNLQMSSLRSEDTAMYYCARLYYGNALDYWGQGTSVTVSS
VL: B3 VL with M21V, K109T

CDC % Relative activity: 116%
CDC EC50: 1.48 µg/mL
B15: 263E9F3 (antibody, V domains shown)
VH: B12 VH with L4V, M20I, K23R, A24S, H41R, N55S, T92A, L102F
VL: B3 VL with S22T, K36E, K51E, Y55S, W56R, E61Q, A86T, N97D, I99S

CDC % Relative activity: 154%
CDC EC50: 1.19 µg/mL
B16: 254A8D5 (antibody, V domains shown)
VH: EVMLVESGGGLVKPGGSLKLSCAASGFTFSSYTVSWVRQTPEKRLEWVATSIVGSTYTYFPDSVKGRFTISRDFAKNTLFLQMSSLRSEDTAMYYCSRLGRGNAMDYWGQGTSVSVSS
VL: B3 VL with M21L, S22N, K24R, E87D, N97G, I99S, L102F, A106S, L112I

CDC % Relative activity: 141%
CDC EC50: 1.06 µg/mL
B17: 257G7F7 (antibody, V domains shown)
VH: B6 VH with N31S, Y32H, I34L, G57N, N58T, Y59N, I77S, A97T
VL: B3 VL with V13E, T14K, K18R, T20S, L30F, I99W, Y100F, L102F

CDC % Relative activity: 142%
CDC EC50: 1.05 µg/mL
B18: 258D11C4 (antibody, V domains shown)
VH: B6 VH with T30S, N31S, Y32H, I34M, N58T, Y59N, I77S, A97T
VL: B3 VL with V13E, T14K, K18R, T20S, L30F, E61Q, N97D, I99W, Y100F, L102F

CDC % Relative activity: 183%
CDC EC50: 0.941 µg/mL
B19: 262H9H6 (antibody, V domains shown)
VH: QAYLQQSGAELVRSGASVKMSCKASGYTFTSHNMHWVKQTPGQGLEWIGYISPGNGYTNYNQKFRGKATLTADTSSSTAYMQISSLTSEDSAVYFCTRDYYGNSFTYWGQGTLVTVSA
VL: B3 VL with V13E, T14K, K18R, T20S, L30F, D76E, I99W, Y100F, L102F

CDC % Relative activity: 487%
CDC EC50: 0.305 µg/mL
B20: 257B1G9 (antibody, V domains shown)
VH: B19 VH with S52Y, Y57G, R65K, T106A
VL: B3 VL with V13E, T14R, K18R, T20S, L30F, N97D, I99R, L102F

CDC % Relative activity: 126%
CDC EC50: 1.45 µg/mL
B21: 250F4G4 (antibody, V domains shown)
VH: B19 VH with S52Y, Y57R, R65K, T106A
VL: B3 VL with V13E, T14K, A15V, K18R, T20S, L30F, N97D, I99W, L102F

CDC % Relative activity: 147%
CDC EC50: 1.01 µg/mL
B22: 257G7B9 (antibody, V domains shown)
VH: B19 VH with M34L, S52Y, Y57N, R65K, T106A
VL: B3 VL with V13E, T14K, K18R, T20S, L30F, I99W, Y100F, L102F

CDC % Relative activity: 51.7%
CDC EC50: 3.06 µg/mL
B23: 194A2F7 (antibody, V domains shown)
VH: QIQLVQSGPELKKPGETVKISCKASGYTFTDYLIHWVKQAPGKGLKWMGWINTETGEPTYADDFKGRFALSLETSASTACLQINNLKNEDTATYFCARIYYGNSFDYWGQGTTLTVSS
VL: B3 VL with T12P, S22T, S28N, N37S, S62T, N97A, I99R, Y100F, L102F, K109R

CDC % Relative activity: 165%
CDC EC50: 1.11 µg/mL
B24: 256C3D3 (antibody, V domains shown)
VH: B19 VH with T28A, S84G, T106A
VL: B3 VL with V13E, T14K, K18R, T20S, L30F, I99W, Y100F, L102F

CDC % Relative activity: 112%
CDC EC50: 1.64 µg/mL
B25: 250F4G1 (antibody, V domains shown)
VH: B19 VH with S52Y, Y57R, R65K, T106A
VL: B3 VL with V13E, T14K, A15V, K18R, T20S, L30F, N97D, I99W, L102F

CDC % Relative activity: 104%
CDC EC50: 1.76 µg/mL
B26: 252F1B10 (antibody, V domains shown)
VH: B19 VH with S52Y, Y57G, R65K, S84N, T106A
VL: B3 VL with V13E, T14K, K18R, T20S, L30F, N97D, I99R, L102F

CDC % Relative activity: 164%
CDC EC50: 1.05 µg/mL
B27: 260G9E8 (antibody, V domains shown)
VH: B19 VH with Y3D, T30A, S52Y, Y57G, N59K, R65T, S84T, T97A, T106A
VL: B3 VL with V13E, T14K, T20S, S22R, E87D, N97D, I99M, Y100F, L102F
